Laboratory results published in publication PMC10644982, “Targeting amyotrophic lateral sclerosis by neutralizing seeding-competent TDP-43 in CSF” (Brain Communications, 2023).

Molecular target: the molecule itself
Assay: thioflavin T aggregation kinetics + electron microscopy; synthetic substrate peptide alone at a range of concentrations, seed-free or seeded with the final product of the 15 µM reaction; 40 mM Tris-HCl, 5 mM DTT, 0.002% SDS, 50 µM ThT, 40°C, intermittent shaking; fibrils seen by negative-stain transmission electron microscopy

B1: TDP-43 peptide (352–414) (peptide)
peptide: NNQNQGNMQREPNQAFGSGNNSYSGSNSGAAIGWGSASNAGSGSGFNGGFGSSMDSKSSGWGM
notes: free N- and C-termini (H- ... -OH); also called assay substrate; SAA substrate
- binding result: binds
